# Results reported in the DeepSol protein solubility set.
# Assay: soluble on expression in E. coli; label from the status in PepcDB or PDB records
row,Sequence,soluble on expression in E. coli
1,MSLALVYSRALSGMNAPLVEVEAHLANGLPHFNIVGLPDMEVKESRDRVRAAIIQSGFEFPAKKITVNLAPADLPKESGRFDLPIAIGILAASGQVAPEKLEEYEFAGELALSGLLRPVRGALAMAWQGMQAKRAFVLPEENAGQAAVMRGITVYGARSLGEVAAHLNGIEPLAQTECQVPQMPFEHGGQPDLCDVKGQHTARLALEIAAAGGHSLLMMGPPGTGKSMLSQRLPGILPPLTEDELVEVWALRSLLPNHQQQLDSNRPFRSPHHSASAAAMVGGGSDPRPGEISLAHHGVLFLDELPEFDRKVLEVLREPLENGEIHISRAARQAVYPAKFQLVAAMNPCPCGYLGHPVKPCRCTPESVARYRSKISGPLLDRIDLTIEVPSLSAAELMQQEAGESSASVLERVIAARDKQYARQGKVNAALSVSELDTSARIQKEAQEALGGLLEKLSLSARSFHRIMRVARTLADLAGDEEVGRSHVMKAIGFRRAL,not soluble
2,MGSDKIHHHHHHMNALPKLNQLRNLRAIIQHGNISAAAQMLHQTQSTLTRSIQELEKTLGVTLLDRGMNSTVLTKAGMMFEPRMNLILNELERAVDELRQIEKLSDGKIAFGCSHFPATSIVPDVIKKFQERHNSTRITIIEGQLSELLSSLRMGKLDFFIGVVSSDLMLNEFVEERLTSCSFSVVARKGHPLANSTSLAELQAAKWYIPAASHGYYSDLETVIFPNGVKSCGSVIFGDSSAIARKLVLNEDYLFVGPRPMFLAPHHKDLISIIPIKDKLPEGHYSLISPRNKKLTPAALNLVNEIRFAYFDFIKSHS,not soluble
3,MGSSHHHHHHGGTGENLYFQGGSGMKSVFITGGNRGIGLETARQMGKLGYYVIISCRDEEKAKAAIEKVSAEGVKADYVIMDVVDESSVAKAAAEVSKKVNGVLDALINNAGKAAPSGDMSRVNLDEMRRCYEVNVIGTVCVTNHFLEMVKKSSAGRIVNVGSIKGSCQLEVTALSHTPYNCSKAALNMYTVNLASSLKDTNVKVNCAHPGWVKTDMGGPQAPLEVTEGAETSVYLATLPADGPTGGFFHKRDRLPW,soluble
4,GYRALSFPDPLDSQPVQAIAFYPSTGSEHLSIIHGYRVEASEDAPIAMGRFPLLLLSHGNTGTPLALHDLATSLARQGFVVVAVVHPGDNDRDHSRLGSLSNLYGRPLQISEAISTALLDPVLAPYLNARQVGVIGYSAGGETALILAGAQPDLQRLRQYCLERPTDRDACKTQGELVADRDDLHAQADPRVGALMLMAPLSLMFGRHTLGDVHVPVLMYAGDDDQLLALDRNAEALARKLPQAPDYKLLAGAGHFVFMAPCSDEQREAAPLL,not soluble
5,MVTQNKKILIITGSFGNGHMQVTQSIVNQLNEMNLNHLSVIQHDLFMEAHPIMTSICKKWYINSFKYFRNTYKRFYYSRPNELDKCFYKYYGLNKLINLLIKEKPDLILLTFPTPVMSVLTEQFNINIPIATVMTDYRMHKNWITPYSQRYYVATKDTKDDFIEAGVPASYIKVTGIPIADKFELEHHHHHH,not soluble
6,MSDMEKPWKEEEKREVLAGHARRQAPQAVDKGPVTGDQRISVTVVLRRQRGDELEAHVERQAALAPHARVHLEREAFAASHGASLDDFAEIRKFAEAHGLTLDRAHVAAGTAVLSGPVDAVNQAFGVELRHFDHPDGSYRSYVGDVRVPASIAPLIEAVLGLDTRPVARPHFRLRRRAEGEFEARSQSAAPTAYTPLDVAQAYQFPEGLDGQGQCIAIIELGGGYDETSLAQYFASLGVSAPQVVSVSVDGATNQPTGDPNGPDGEVELDIEVAGALAPGAKIAVYFAPNTDAGFLNAITTAVHDPTHKPSIVSISWGGPEDSWAPASIAAMNRAFLDAAALGVTVLAAAGDSGSTDGEQDGLYHVDFPAASPYVLACGGTRLVASAGRIERETVWNDGPDGGSTGGGVSRIFPLPSWQERANVPPSANPGAGSGRGVPDVAGNADPATGYEVVIDGETTVIGGTAAVAPLFAALVARINQKLGKPVGYLNPTLYQLPPEVFHDITEGNNDIANRARIYQAGPGWDPCTGLGSPIGIRLLQALLPSASQAQP,soluble
7,MTRRPDRKDVATVDELHASATKLVGLDDFGTDDDNYREALGVLLDAYQGEAGLTVLGSKMNRFFLRGALVARLLSQSAWKQYPEHVDVAIKRPIFVTGLVRTGTTALHRLLGADPAHQGLHMWLAEYPQPRPPRETWESNPLYRQLDADFTQHHAENPGYTGLHFMAAYELEECWQLLRQSLHSVSYEALAHVPSYADWLSRQDWTPSYCRHRRNLQLIGLNDAEKRWVLKNPSHLFALDALMATYPDALVVQTHRPVETIMASMCSLAQHTTEGWSTKFVGAQIGADAMDTWSRGLERFNAARAKYDSAQFYDVDYHDLIADPLGTVADIYRHFGLTLSDEARQAMTTVHAESQSGARAPKHSYSLADYGLTVEMVKERFAGL,soluble
8,MSSECDGGSKAVMNGLAPGSNGQDKDMDPTKICTGKGAVTLRASSSYRETPSSSPASPQETRQHESKPGLEPEPSSADEWRLSSSADANGNAQPSSLAAKGYRSVHPNLPSDKSQDSSPLLNEVSSSLIGTDSQAFPSVSKPSSAYPSTTIVNPTIVLLQHNREQQKRLSSLSDPVSERRVGEQDSAPTQEKPTSPGKAIEKRAKDDSRRVVKSTQDLSDVSMDEVGIPLRNTERSKDWYKTMFKQIHKLNRDDDSDLYSPRYSFSEDTKSPLSVPRSKSEMSYIDGEKVVKRSATLPLPARSSSLKSSSERNDWEPPDKKVDTRKYRAEPKSIYEYQPGKSSVLTNEKMSRDISPEEIDLKNEPWYKFFSELEFGKPTNLDKDLSLCQTELEADLEKMETLNKAPSANVPQSSAISPTPEISSETPGYIYSSNFHAVKRESDGAPGDLTSLENERQIYKSVLEGGDIPLQGLSGLKRPSSSASTKVHSRTFNTSNALGPVCKHKKPLSAAKACISEILPSKFKPRLSAPSALLQEQKSILLPSEKAQSCENLCVSGSLNDSKRGLPLQVGGSIENLLMRSRRDYDSKSSSTMSLQEYSTSGRRPCPLSRKAGMQFTMLYRDMHQINRSGLFLGSISSSSSVRDLASHFEKSSLALSRGELGPSQEGSEHIPKHTVSSRITAFEQLIQRSRSMPSLDLSGRLSKSPTPVLSRGSLTSARSAESLLESTKLHPKEMDGMNSSGVYASPTCSNMAHHALSFRGLVPSEPLSTCSDDVDRCSNISTDSREGSGGSVHGDFPKHRLNKCKGTCPASYTRFTTIRKHEQQQTSRQPEWRLDARGDKSTLLRNIYLMSPLPFRLKKPLHHHPRQPSPGDSSGLLVGQKPDLPSQPHQDQPPSGGKPVVPTRLSSRHTMARLSRSSEPSQERPTALEDYPRAINNGNSVPYSDHSLDRNNNPQSELAPSRGDSESPRHFIPADYLESTEEFIRRRHDDKEMRPARAKFDFKAQTLKELPLQKGDIVYIYKQIDQNWYEGEHHGRVGIFPRTYIELLPPAEKAQPKKLTPVQVLEYGEAIAKFNFNGDTQVEMSFRKGERITLLRQVDENWYEGRIPGTSRQGIFPITYVDVIKRPLVKNPVDYMDLPFSSSPSRSATASPQQPQAQQRRVTPDRSQTSQDLFSYQALYSYIPQNDDELELRDGDIVDVMEKCDDGWFVGTSRRTKQFGTFPGNYVKPLYL,soluble
9,MNIFAILNHMGVFFKEEPVRQLHAALEKAGYEVVYPVDDKDLIKMIEMNPRICGVLFDWDKYSLELCERISQINEKLPVHAFANEQSTLDISLTDLRLNVSFFEYALGMADDI,not soluble
10,MAHHHHHHMPTEADLEKIRRERAARYQQLSEAEKPRVEPCPHCHELPYKKEVCPETGIFHNLERHTIVGGAVVQSNIVRSSELMEAIDRSRIRWVESRTQMVRADAVSLNLFQSFVRQLDWSLQRYGILYGKYDASLNLIEVHAIYEPEQHGDAYTFHYLPDKRLPNVDRIAALLGLRRVGAVCTHPPRDIEEMVLSSREILLCAREQSRFGDECVLLTMSPSLTTGRIECQAWQTSPQAVHFYRLGVLREKSDDYSDLESAKYVHSSIPLEVAQQETDEKGHPRVVTMAPSHDIDTRWFTSYVAVQQFESPVVRNLFMRVSRPGMEPPAMINLRNYMEDPKRRKVPLIEKLADFHVLIFLAESVFSVADDMPVIIGAITKQRPAEDAMHYGEVLKLYLEQ,soluble
11,MGSDKIHHHHHHMSIMNSLLQQKETVVKGWLTYYVSVDDPYVFALKDDHRLMDETGFVLENLFIGMTEDLAKMNTFARELGKAQFITSLGISRILFHIRLLEEFLLDYASEINAECNNYRELYLFSIKLHQVFSSFTQHLIEGYTLATEQLVQQKENQIIKSSTKLIWLAEKVFLLPLIGKITDERAKQITETALFETCEQPVNYLIIDLSGVQFDSANIGEYIEHFFSSLKLVGVTPIITGMQPETAKIMVQANLTEQKGIKTFATLRQATKSLIKEKEARNAIK,not soluble
12,MIKHESSQPLRVAVAQCRIDWEDKHANLRRMERLAEETAGMADVLFFPEMMTTGFSMNVQALAEPFEEGETIMSLKRVTARHGLALSATMAVRENGKFYNRAYFVTPEGEVFHQDKRHLFRVGGEHEVMTPAQERRIFNYRGWKIFIIPCYDLRFPVWCTNTDLEYDLLVCMANWPEPRRAVWQTLLQARAMENYAYVCGINRVGEDGIGLRYTGDSAILSPRGEYLATCAEGEEKVLYHTLDKGAMQRFRDKFPAWMDMDSFVINYDTDLHP,not soluble
13,SKTNPRLSSLIADLKSAARSSGGAVWGDVAERLEKPRRTHAEVNLGRIERYAQEDETVVVPGKVLGSGVLQKDVTVAAVDFSGTAETKIDQVGEAVSLEQAIENNPEGSHVRVIR,soluble
14,MSIQRFTPEFKAEAVRQVIERGYSVAEIAAGFGVSTHSLYKWVKAVTPDKSEKQASELLEAKSEILRLRAQMRRLEEERDILKKPSGSSHTAWRPLEHHHHHH,not soluble
15,QYAIERHFYSQDFSYISSKFNAIENELKSSLEDVFKQANNSTLYMWVFEGKLNVYQNSSLTIPQNRAYSISSPQVLNHERAIEWSEDSLNIRAFAFQAGEYQVVLGMSINHHILFLDKLD,not soluble
16,MDYCCVGRNNNDSVPREVTLLRVKTLMKMANHPRPGDIIQESLDELNVSLREFARAMEIAPSTASRLLTGKAALTPEMAIKLSVVIGSSPQMWLNLQNAWSLAEAEKTVVVSRLRRLVTQ,not soluble
17,MGSDKIHHHHHHMPANDFVSPDSIRAQFSAAMSLMYKQEVPLYGTLLELVSEINQQVMAQQPEVAEALRWTGEIERLDQERHGAIRVGTAEELATIARLFAVMGMQPVGYYDLSSAGVPVHSTAFRAVHEQSLHVSPFRVFTSLLRLELIDNPQLRELAQSILAKRQIFTSRALELIAQCEREGGLDAADAETFVQEALHTFRWHQDATVTAEQYQQLHDQHRLIADVVAFKGPHINHLTPRTLDIDAIQLGMPAKGIPPKAVVEGPPTRRHPILLRQTSFKALQETVAFRDQQGREGSHTARFGEIEQRGAALTPKGRQLYDKLLDATRVALGGAPAEANAERYMALLQANFAEFPDDLAQMREQGLAYFRYFATEKGLAARDQEGRPTTLQGLIDAGHVHFEALVYEDFLPVSAAGIFQSNLGDDAQAEYGSNANREAFEAALGLQVQDELALYAQSERRSLQACAQALNLGSM,not soluble
18,MGSDKIHHHHHHVLNLGHKLLQYEAQKLISFHTPGHKGKAEFFTDLHFPDQDLTELPGLDMLHSPAGVIAQAQARAAAVYQSDASFYLINGATVGNQGMFMALAGTGKRGKDLQLPKVLVERQSHRSVFSALVLSGCEPEYIPSVVHPEFGLPLGLKSIAEVDLGEFLGVHLTYPGYYGTLPDLAMIAAQRDRQAVQVSILVDQAHGSHYLSPLFPKGALAYGADLVLCSTHKTLSALTQAAMLHVQGSRIPLSALKEALELLQSSSPSYLLMASLERAVEHALESRRWELLHEAVQELHHRVGGSLRILNPQDVGTYGIAGLDWTKIMINTQRLGVAAPRCVEHLRKSYGIDPELWDDKNILFLLGIGNTPEEVEILTKGLLSLASLNKDVVASPEEMVFEIPLPPVRLTPRQAYFARKRKIPLAESVGHIVGESISPYPPGIPWIVMGEEMTPEILELLTRHKGRWQGWEDAGQGVWIIEEV,not soluble
